These results are taken from patent US20240294670A1 (University of Texas, published 2024).

Assay [1] has as its target T1, recombinant mouse CHI3L1 (mouse, UniProt Q61362 30-389, limits assumed).
T1 construct: His-tagged; also called mCHI3L1; mChi3l1
Description: ELISA: mouse CHI3L1 coated on the plate, B cell culture supernatant 100 ul/well, A450. As to the method: (§1) FIG. 7. The ELISA binding of the supernatant antibody to the human CHI3L1. (hCHI3L1), and mouse CHI3L1 (mCHI3L1). The CHI3L1 protein was coated on maxi-sorp 96-well plates, cell culture supernatant (100 ul/well) was used for binding on the antigen coated plate. Binding signals (A450 nm) are shown in Y-axis and CHI3L1 mAbs are shown on X-axis.
(§2) Binding affinity of anti-CHI3L1 monoclonal antibodies to the CHI3L1 protein using ELISA method. Binding of CHI3L1 by monoclonal antibodies was first screened by ELISA using supernatants collected from the B cell cultures and cross reactivity to mouse CHI3L1 protein was determined (FIG. 7).

Another assay has as its target T2, recombinant human CHI3L1 (human, UniProt P36222 22-383).
T2 construct: His-tagged recombinant protein (Sino Biological 11227-H08H, or in-house HEK293 protein with 6xHIS-tag and avi-tag); also called hCHI3L1; hChi3l1
Briefly: ELISA: human CHI3L1 coated on the plate, B cell culture supernatant 100 ul/well, A450. As for the experimental part: as §1, §2
In general terms: ELISA stands for enzyme-linked immunosorbent assay.

In assay [2] the target is T1, recombinant mouse CHI3L1. Description: BLI (Octet), mAb on protein A sensor, CHI3L1 in solution, 1:1 fit. As for the experimental part: FIG. 8. Kinetic binding sensorgrams collected on Octet instrument for determination of kon and koff rates for each CHI3L1 antibody.
Binding affinity of anti-CHI3L1 monoclonal antibodies determined using Bio-layer interferometry (BLI), a sensor-based Octet instrument. […] Following by kinetics buffer washing to baseline, the loaded biosensors were exposed to a series of recombinant CHI3L1 protein at 0.1-200 nM range and background subtraction was used to correct for any background from sensor drifting. All experiments were performed with shaking at 1,000 rpm. Background wavelength shifts were measured from reference biosensors that were loaded with antibody and followed with buffer without antigen. ForteBio's data analysis software was used to fit the data to a 1:1 binding model to extract an association rate and dissociation rate. The KD was calculated using the ratio of koff/kon and the estimated values of KD for CHI3L1 mAbs in Table C.

T2 sequence (P36222 22-383 limits assumed): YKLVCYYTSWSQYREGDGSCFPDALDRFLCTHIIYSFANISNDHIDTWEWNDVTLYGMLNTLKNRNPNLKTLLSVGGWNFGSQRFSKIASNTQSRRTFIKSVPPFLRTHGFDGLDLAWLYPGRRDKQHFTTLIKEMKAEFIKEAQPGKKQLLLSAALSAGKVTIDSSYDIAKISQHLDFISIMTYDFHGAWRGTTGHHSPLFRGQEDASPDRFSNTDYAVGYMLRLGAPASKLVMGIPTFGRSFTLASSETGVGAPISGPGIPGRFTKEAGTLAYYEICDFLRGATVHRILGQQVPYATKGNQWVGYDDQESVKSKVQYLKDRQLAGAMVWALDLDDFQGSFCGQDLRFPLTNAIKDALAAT
T1 sequence (Q61362 30-389 limits assumed): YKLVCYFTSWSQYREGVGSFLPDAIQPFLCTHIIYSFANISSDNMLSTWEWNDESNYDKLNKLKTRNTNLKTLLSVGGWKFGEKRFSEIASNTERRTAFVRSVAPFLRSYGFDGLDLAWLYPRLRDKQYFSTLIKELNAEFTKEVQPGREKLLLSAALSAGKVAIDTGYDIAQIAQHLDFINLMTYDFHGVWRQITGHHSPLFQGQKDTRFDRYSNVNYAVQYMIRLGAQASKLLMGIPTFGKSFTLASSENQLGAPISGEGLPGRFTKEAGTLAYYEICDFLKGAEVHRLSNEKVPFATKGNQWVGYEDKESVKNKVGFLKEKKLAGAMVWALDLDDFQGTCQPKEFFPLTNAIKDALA

B1: anti-CHI3L1 monoclonal antibody C21 (antibody, V domains shown)
VH: QSVKESGGGLVQPEGSLTLTCTASGFSFSSSYYMCWVRQAPGKGLEWIACIYNGDGSTYYASWAKGRFTISKTSSTTVTLQMTSLTAADTATYFCARDADYAGVVLNLWGPGTLVTVSS
VL: AQVLTQTPASVEAAVGGTVTIKCQASESIGNALAWYQQKPGQPPKLLIYVASYLASGVSSRFKGSRSGTEYTLTISDLECVDAATYYCQCTWYGNVYLAFGGGTEVVVK
notes: Rabbit mAb
Turning to B1, the binding result is “no binding” with recombinant mouse CHI3L1 [1] and “binds” with recombinant human CHI3L1.

B2: C22 (antibody, V domains shown)
VH: QLVEESGGGLVKPGAPLTLTCTLSGFSFSSGYYMCWVRQAPGKGLEWIACIYGAVSDRIYFASWAKGRFTMSRPSSTTVTLQMTSLTAADTATYFCARDSYSGSTYYRSYYFNLWGPGTLVTVSS
VL: DPVLTQTPASVSAAVGGTVTISCQSNENIYVDKYLSWYQQKPGQPPKGLIYSASTLASGVPSRFRGSGSGTQFTLTISDVQCDDAATYYCAGSFSSSDSCAFGGGTEVVVK
notes: also called anti-CHI3L1 monoclonal antibody C22
Regarding B2, the binding result in the assay with recombinant mouse CHI3L1 [1] is “no binding”; with recombinant human CHI3L1, “binds”.

B3: anti-CHI3L1 monoclonal antibody C65 (antibody, V domains shown)
VH: QSVEESGGGLVQPEGSLTLTCTASGFSFSSSYYMCWVRQAPGKGLEWIACIFTGGVSTYYASWVNGRFTISKTSSTTVTLQMTSLTAADTATYFCARTYTAGFTGDNYFNLWGPGTLVTVSS
VL: AQVLTQTPASVEAAVGGTVTIKCQASQSISSYLAWYQQKPGQPPKLLIYRASTLASGVPSRFKGSGSGTEFTLTISDLECADAATYYCQSDYYSSSSNNGFVFGGGTEVVVK
notes: Rabbit mAb from single B cells, expressed as full length IgG in HEK293
In general, Kd refers to the free concentration of one partner at which half of the binding sites on the other are occupied at equilibrium, for simple one-to-one binding. By koff is commonly meant a measure of how fast the partners let go of each other. As usually defined, the kon is the second-order rate constant of association. Consider B3, for which, in the assay with recombinant mouse CHI3L1 [2], the Kd came to 6 nM, the koff was 0.000756 s⁻¹ and the kon amounted to 126000 M⁻¹ s⁻¹.

B4: anti-CHI3L1 monoclonal antibody C61 (antibody, V domains shown)
VH: QEQLEESGGDLVKPEGSLTLTCTASGFSFSSSYWICWVRQAPGKGLEWIACIYAGGSGSTYYASWAKGRFTISKTSSTTVTLQMTSLTAADAATYFCARDGVSGSGWFFNLWGPGTLVTVSS
VL: DVVMTQTPASVSEPVGGTVTIKCQASQSISSYLTWYQQKPGQPPKLLIYKASTLASGVSSRFKGSGSGTEFTLTISDLECADAATYYCQSSYYGPSDVDFSPFGGGTEVEIK
notes: as for B3
Consider B4, for which, in the assay with recombinant mouse CHI3L1 [2], the Kd is 2.81 nM, the off-rate (koff) is 0.000201 s⁻¹ and the kon worked out at 71500 M⁻¹ s⁻¹. For the same molecule, in the assay with recombinant human CHI3L1, the binding result was “no binding”.

B5: anti-CHI3L1 monoclonal antibody C55 (antibody, V domains shown)
VH: QSVKESGGDLVKPGASLTLTCTASGFSFSSDYDIYWVRQAPGKGLEWIAWIDGGSSGEIYANWAKGRFTISKTSSTTVTLQMTSLTAADTAAYFCARCIWSHNYYDLWGPGTLVTVSS
VL: AIKMTQTPSSVSAAVGGTVTINCQASEDIENYLAWYQQKPGQPPKLLIYRASTLASGVSSRFKGSGSGTEFTLTISDLECADAATYWCQQGYSGSNVDNFFGGGTKVVVE
notes: Rabbit mAb from single B cells, expressed as full length IgG in HEK293; also called clone 55
With B5, in the assay with recombinant mouse CHI3L1 [2], the Kd came out at 1.22 nM, the koff came out at 0.000141 s⁻¹ and the on-rate constant (kon) turned out to be 115000 M⁻¹ s⁻¹.

B6: anti-CHI3L1 monoclonal antibody C15 (antibody, V domains shown)
VH: QSVKESGGGLVQPEGSLTLTCTASGFDFSSNAMCWVRQAPGKGPEWIACIYNGDASTYYASWAKGRSTISKTSSTTVTLQMTSLTAADTATYFCARCFNRFYRGDLWGPGTLVTVSS
VL: DPMLTQTPSSVSAAVGGTVSISCQSSQSVYDNDWLSWYQQKPGQPPKLLIYDASKLASGVPSRFKGSGSGTQFTLTISDVQCDAAATYYCAGDYINTIDNAFGGGTEVVVK
notes: Rabbit mAb
On to B6, for which the binding result with recombinant mouse CHI3L1 [1] and in the assay with recombinant human CHI3L1 was “binds” in each case.

B7: anti-CHI3L1 monoclonal antibody C17 (antibody, V domains shown)
VH: QSVKESGGDLVKPGASLTLTCTASGFSFSSSYWICWVRQAPGKGLEWIACIDAGSSESTYYASWAKGRFTISKTSSTTVTLQMTSLTAADTATYFCARDSRVVAGVGMYLNLWGPGTLVTVSS
VL: AIKMTQTPASVEVAVGGTVTIKCQASQSIGIYLAWYQQKPGQPPKLLIYDASDLASGVPSRFRGSGSGTQFTLTISGVECADAATYYCQQGDTIYNVDNTFGGGTKVVVE
notes: Rabbit mAb
As to B7, the binding result was “no binding” in the assay with recombinant mouse CHI3L1 [1] and “binds” with recombinant human CHI3L1.

B8: anti-CHI3L1 monoclonal antibody C30 (antibody, V domains shown)
VH: QEQLVESGGGLVTPGGTLTLTCTASGFDFSSYYYMCWVRQAPGKGLELIAAIDTGSGETYYASWANGRFTISKTSSTTVTLQMTSLTAADTATYFCARDPYFGTNLWGPGTLVTVSS
VL: DPMLTQTPSPVSAAVGGTVTITCQASQSVYNNNYLSWFQQKPGQPPKLLIYKASILASGVPSRFKGSGSGTQFTLTISDLQCDDAATYYCLGGYSSPSDDAFGGGTKVVVE
notes: Rabbit mAb
Regarding B8, the binding result in the assay with recombinant human CHI3L1 is “binds”.

B9: anti-CHI3L1 monoclonal antibody C18 (antibody, V domains shown)
VH: KQLVEESGGDLVRPEGSLTLTCKGSGFDFSRNAMCWVRQAPGKGLEWIACIYVGSGGGTYYATWAKGRFTISKTSSTTVTLQMTSLTAADTATYFCAGSPYSGYGYFNLWGPGTLVTVSS
VL: DPMLTQTPASVSEPVGGTVTIKCQASQSISTALAWYQQKPGQPPKLLIYRASILASGVPSRFKGSGSGTEFTLTISDLECADAATYYCQSYYDSSAGNTFGGGTKVEIK
notes: Rabbit mAb
For the molecule B9, the figures for the binding result with recombinant mouse CHI3L1 [1] and with recombinant human CHI3L1 were “no binding” and “binds”, respectively.

B10: anti-CHI3L1 monoclonal antibody C57 (antibody, V domains shown)
VH: QSVEESGGGLVQPGGSLTLTCKASGFSFSSGYWMCWVRQAPGKGLEWIACIGASYGGTFYASWAKGRFTISKTSSTTVTLQMTSLTAADTATYFCTRDDGGLDNPNLWGPGTLVTVSS
VL: DPVLTQTPASVEAAVGGTVTIKCQASQSIGSILAWYQQKPGQPPHLLIYAAAKLASGVPSRFKGSGSGTQFTLTISGVECDDAATYYCQSYYYSVTTSYSNSFGGGTEVVVK
notes: as for B3
As to B10, in the assay with recombinant mouse CHI3L1 [2], the Kd turned out to be 4.09 nM, the koff came out at 0.000223 s⁻¹ and the kon was 54500 M⁻¹ s⁻¹. In the assay with recombinant human CHI3L1, the binding result is “no binding”.

B11: anti-CHI3L1 monoclonal antibody C68 (antibody, V domains shown)
VH: QSVEESGGDLVKPGASLTLTCTASGFSFSGPYWISWVRQAPGRGLEWIASIGARSSGSTHYASWAKGRFTISKTASTTVTLQMTSLTAADTATYFCARSYPAYAGDGYALYYFNLWGPGTLVTVSS
VL: DVVMTQTPASVSAAVGGTVTIKCQASEDIYSLLAWYQQKPGQPPKFLIYDASDLASGVPSRFSGSGSGTEYTLTINDLKCDDAATYYCQGGYYSGDGTDIPFGGGTELEIL
notes: as for B3
On to B11, for which, in the assay with recombinant mouse CHI3L1 [2], the Kd came to 0.799 nM, the koff came to 0.00011 s⁻¹ and the kon is 138000 M⁻¹ s⁻¹. The binding result with recombinant human CHI3L1 was “no binding”.

B12: anti-CHI3L1 monoclonal antibody C19 (antibody, V domains shown)
VH: QEQLVEYGGDLVQPEGSLTLTCTASGFTISSTFYMGWVRQAPGKGLEWIGDMHVGSATTTYYASWAKGRFTISKPSSTTVTLQMTSLTAADTATYFCARYVNSGYYMDSWGPGTLVTVSS
VL: AQVLTQTPASVEVAVGGTVTIKCQASQTISNLLAWYQQKPGQPPKLLIYDASTLAYGVSSRFSGSGSGTQFTLTISGVQCADAATYYCQQGWSSSNVDNVFGGGTKLEIK
notes: Rabbit mAb
On to B12, for which the figures for the binding result with recombinant mouse CHI3L1 [1] and with recombinant human CHI3L1 were “no binding” and “binds”, respectively.

B13: anti-CHI3L1 monoclonal antibody C64 (antibody, V domains shown)
VH: QSVEESGGDLVKPGASLTLTCTASGFSFSNNYWICWIRQAPGKGLEWIACIYAGDTGTAYYANWAKGRFTISKTSSTTVTLQMTSLTAADTATYFCARDGDGVGNGGTFALWGPGTLVTVSS
VL: ALVMTQTPASVEAAVGGTVTIRCQASERIGNALAWYQQKPGQPPKLLIYQTSKLTSGVPSRFKGSGSGTEHTLTISDLECADAATYYCQSYYYTGSISYEFGGGTKVVVE
notes: as for B3
Regarding B13, in the assay with recombinant mouse CHI3L1 [2], the Kd came out at 0.254 nM, the koff stood at 2.71e-05 s⁻¹ and the kon was 107000 M⁻¹ s⁻¹. Further, the binding result with recombinant human CHI3L1 was “no binding”.
